The nanobody polyreactivity screen of Harvey et al. (2022)

Assay: yeast display, Sf9 membrane polyspecificity reagent, FACS + sequencing; frameworks hold sequencing errors
In short: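 Nanobodies from a synthetic yeast display library (Saccharomyces cerevisiae BJ5465), induced 36–48 hours with galactose, were stained 1 hour at 4 °C with 10% biotinylated, detergent-solubilized Sf9 membrane reagent, enriched on streptavidin microbeads, then FACS-sorted. Anti-HA (expression) and streptavidin (reagent binding) fluorescence set low and high (top ~1%) gates. Polyreactivity labels come from the gate of origin. Genes were colony-PCR amplified, MiSeq 2 × 250 sequenced and filtered by CDR length.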

| Sequence | polyreactivity (PSR sort gate) |
| --- | --- |
| QVQLVESAGGLVQAGGSLRYSCAASGRTIYRYAMGWYRQAPGKERELVAAINRSTGRTYYADSVKGRFTISRDNAKNTVYLQMTSLNPEDTAVYYCARSDKKYPQASSREDYGYWGQGTQVTVSS | high polyreactivity |
| QVQLVESAGGLVQAGGSLSLSCAASASTFSSNAMGGYRQAPGKERELVAAITTSGGSTYYADSVKGRFTISRDNAKNTVYLQMNSLIPEDTAVYYCAADLVHAYQWSIFLYGYWGLGTQVTVSS | low polyreactivity |
| QVQLVESAGGLVQAGGSLSLSCAASGRILDRNGMGWYRQAPGKERELVATITGIADSTYYADSVKGRFTISRDNAKNTVYLQMNSLKPEDTAVYYCAADKYVAEYDYWGQGTQVTVSS | low polyreactivity |
| QVQLVESAGGLVQAGGSRRLSCAASGRNFPFYAMGWYRQAPGKERELVATISSGDRTNYAVSVKGRFTISRDNAKNTVYLQMNSLKPEDTAVYYCAADFAVKYRKRVRRYSWGHGTQVTVSS | low polyreactivity |
| QVQLVESAGGLVQAGVRLRLSCAASGRTFVCNAMGSYRQAPGKERELVADITWSGDITYYADSVKGRFTISRDNAKNTVYLQMNSLKPEDTAVYYCAADYHRRLTDYDYWGQGTQVTVSS | low polyreactivity |
| QVQLVESAGGLVQAGVSLRLSCAASGFTFAQNVMGWYRQAPGKERELVAAISVSGGSTYYADSVKGRFTISRDNAKNTVYLQMNSLKPEDTAVYYCNAVAGVTKRVDLSRSGYWGLGTQVTVSS | high polyreactivity |
| QVQLVESAGGLVQAGVSLRLSCAASGFTFSPNAMGWYRQPPGKERELVAAIDWSGDRTYYADSVKGRFTISRDNAKNTVYLQMNSLKPEDTAVYYCAKTNFSQSSRYNYDYWGQGTQVTVSS | low polyreactivity |
| QVQLVESAGGLVQAGVSLRLSCAASGIIFPYYTMGWYRQAPGKERELVARITNGGRTYYADSVKGRFTISRDNAKNTVYLQMNSLKPEDTAVYYCNAGRYYIGGYWGQGTQVTVSS | high polyreactivity |
| QVQLVESAGGLVQAGVSRRLSFAASGSIFGDYAMGWYRQAPGTERELVATITWIGGSTYYADSVKGRFTISRDNAKNTVYLQMNSLIPEDTAVYYCAATKYVDVKYYYWGQGTQVTLSS | low polyreactivity |
| QVQLVESAGGLVQEGGILRLICADSGRIVYRYAMGWYRQAPGKERELVAAISRRGGSTYYEDSVKGRFTISRDNAKYTVIFQMNSLKAVDTAVYYFARYHWYYRVSKSDSWGQGTQVPVSS | high polyreactivity |
| QVQLVESAGGLVQEGGSLRLSCAASGLTFYGNAMGWYRQAPGKERELVAAISSSGGTTSYADSVKGRFTISRDNAKNTVYLQFNSLKPEDTAVYYCAARPSGGYESTRTRDYWGQGTQVTVSS | low polyreactivity |
| QVQLVESAGGLVQEGGSLRLSCAASGRIFARYAMGWSRQAPGKERELVAAITDSGDNTYYADSVKGRFTISRDNAKNTVYLQMNSLKPEDTAVYYCKAYFLVHYRRLRPYDYWGHGTQVTVSS | low polyreactivity |
| QVQLVESAGRLVKAGGSLRLSCDASGSIFKGNAMGWYRQEPGKERELVAAISRTGGSTYYADSVKGRFTISRDNAKNTVYLQMNSLKPEDTAVYYCAAYSASTYDSWGQGTQVTVSS | high polyreactivity |
| QVQLVESARGLVQAGGCLRLSCAASGSTFHQNAMGWSRQAPGKERELVAAITSGGSTYYADSVKGRFTISRDNAKNTGYLQMNSLKPEDTAVYYCNALTHVRSKRWRFRSEHDYWGQGTQVTVSS | high polyreactivity |
| QVQLVESAVGLVQAGGRLRLSCAASGRIFVFNAMGWYMQAPGKERELVAAITASSTRTYYADSVKGRFTISRDNAKNTVYLQMNSLNPEDPAVYYCARDIRQYILYGRVDYWGQGTQVTVSS | low polyreactivity |
| QVQLVESAVGLVQAGGSLRLSCAASGRIFYFNAMGWYRQAPGKERELVAAISSSGTTYYADSVKGRFTISRDNAKNTVYLQMNSLKPEDTAVYYCAAGYYGHDPRNRYRYNYWGQGTQVTVSS | high polyreactivity |
| QVQLVESAVGLVQAGGSLRLSCDASGRSYYTYAMGWYRQAPGKERELVATITDGGSTYYAESVKGRFTISRDNAKNTVYLQMNSLKPEDTAVYYCAADAYQWYDWGQGTQVTVSS | low polyreactivity |
| QVQLVESCGALVQASGTLRLSCAASGSIFGYNTMRWYRQAPGKERELVAAIYYSGGRTYYADSVKGRFTISRDNAKNTVYLQMNSLKPEDTAVYNCAARKGYRYYYRGQGTQVTVSS | high polyreactivity |
| QVQLVESCGCLVQAVGSLRLSCAASRFIFRLYAMVWYRQAPGKERELVAAISSGTSTYYADSVKVRFTISRDNAKNTVYLQMNSLKPEETEVYYCAAVPRVNWSRYVYFWYDYWGEGTQVTVSS | high polyreactivity |
| QVQLVESCGGLDQAGGSLRLTCAASGINFWYNTMGWYRQAPRKERELVAAITYGGGSTYYADSVKGRFTISRDNAKNSVYLQMYSMKPVDTAVYYCAVRNWHLIKYLHGYSRYGYWGQGTQVTVSS | low polyreactivity |
| QVQLVESCGGLVQAGGSHRLSCAASGFTFTRNALGWYRQAPGKERELVAAISIRGSSTYYADSVKGRFTISRDNAKNTVYLQMNILKQEDTAVYYCSAPTFSLHGTYGYWGQGTQVTVSS | high polyreactivity |
| QVQLVESCGGLVQAGGSLRISCAASGRIFRPYAMGWYRQAPGPEREFVAAITSGSNTYYADSVKWRFTISRDNAKNTVYLQMNSLKPEDTAFYYCAAVQRKRAPAETAYGYWGQGPQVTVSS | high polyreactivity |

| Sequence | polyreactivity (PSR sort gate) |
| --- | --- |
| QVQLVESCGGLVQAGGSLRLSCAASGFIFLPYVMGWYRQAPGKERELVAAISGGGGITYYADSVKGRFTISRDNAKNTVYLQMNSLKPEDTAVYYCAAERPVAPYDYWGQGTQVTVSS | low polyreactivity |
| QVQLVESCGGLVQAGGSLRLSCAASGFNIYRNAMGWYRKAPGKERELVAAISTSVGSTHYADSVKGRFTISRDNAMNTVYLQMYSLKPEDTAVYYCAKRRSIRDEFGYWGQGTQVTVSS | high polyreactivity |
| QVQLVESCGGLVQAGGSLRLSCAASGIIFWWYTMGWYRQAPGKERELVAAISRGGNTNYADSVKGRFTISRDNAKNTVYLQMNSLKTEDTAFYYCAADRHYRFWQYDYWGQGTQVTVSS | high polyreactivity |
| QVQLVESCGGLVQAGGSLRLSCAASGRIFKYNPMGWYRQAPGQERELVASITASGGRTYYADSVKGRFTISRDIAKNTVYLQMNSLKTEDTAVYYCAAGRPFSKYGYWRQGTQVTVSS | high polyreactivity |
| QVQLVESCGGLVQAGGSLRLSCAASGRISQNAMGWYRQPPVKERELVAAITFSGGSTYYADSVKGRFTISRDNAKNTVYLQMNSLKPEDTAVYYCNGDYGDWPTAGDYWGQGTQVTVSS | low polyreactivity |
| QVQLVESCGGLVQAGGSLRLSCAASGRTFTDYVMGWYRQAPGKERELVAGIRRSGGTYYADSVKGRFTISRDNAKNTVYLQMNSLKPEDTAVYYCAAPVQTGPDPEYDYWGQGTQVTVSS | low polyreactivity |
| QVQLVESCGGLVQAGGSLRLSCAASGSTFGYYAMGWYRQAPGKETELVAAISSRGGSTYYADSVKGRFTISRDNAKNTVYLQMNSLKPEDTADYYCAARGLFFRNRYGYWGQGTQVTVSS | high polyreactivity |
| QVQLVESCGGLVQAGGSLRLSCAASGSTFRFYAMGWYRQAPGKERELVAAINGSGGSTYYADSVKGRFTISRDNAKNTVYLQMNSLKPEDTAVYYCAVLYRYGYDYWGQGTQVTVSW | low polyreactivity |
| QVQLVESCGGLVQAGGSLRLSCAASGSTFRYYPMGWYRPATGKETELVASISIGGGSTYYADSVKGRFTISRDHAKNTVYLQMNSLKPEDTAGYYCAAERTIRAARPFFRTFDYWGQGTQVTVSS | low polyreactivity |
| QVQLVESCGGLVQAGGSLRLSCAASGSTFSSYAMGWYSQAPGKERELVAAISSSGGTSTYADSVKGPFTISRDNAKNTVYLQMNSLKPEDTAVYYCNTDRFRRLYDYWGQGTQVTVSS | high polyreactivity |
| QVQLVESCGGLVQAGGSLRLSCAASGSTFYRYAMGWYRQAPGKERELVARITRTGGITNYADSVKGRFTISRDNAKNTVYLQMNSLKPEDTAVYDCAKTNIRDHYYWGQGTQVTVSS | high polyreactivity |
| QVQLVESCGGLVQAGGSLRLSCAASGYIFVYNAMGWYRQAHGKERELVAAISTTGGRTYYADSVKGRFTISRDNAKNTVYLQMNSLKPEDTAVYYCAARAYYARSLFGYWGQGTQVNVSS | high polyreactivity |
| QVQLVESCGGLVQAGGSLRLSCAPSGRTIVYKAMGWYRQAPGKERELVAAISWSGGSPYYADSVKGRFTISRDNAKNTVNLQMNSLKPDDSAVYYCATSSYYYTIWMYYWGQGTQVTVSS | high polyreactivity |
| QVQLVESCGGLVQAGGSLRLSCASSGFIFFENAMGCYIQAPCKERELVAVISSSGTSTYYADSVKGRFTISRDNAKNTVYLQMTSLKPEDTAVYYCAKDYYRSYGREDYWGQGTQVTVSS | low polyreactivity |
| QVQLVESCGGLVQAGGSLRLSCASSGLTFSRYAMGWSRQAPGKERELVAVISRSGGSTYYADSVKGRFTISRDNAKTTVYLHMNSLKPEDTAVYYCAVRAYIKMDYWGQGTQVTVSS | high polyreactivity |
| QVQLVESCGGLVQAGGSLRLSCSATGSTSVANAMGWYRQAPGKEREIVAAITGYGVSTYYADSVKGRFTISRDNAKNTVFLQMNSLKPEDTAVYYCATRGVSTSRPGYYWGQGTQVSVSS | high polyreactivity |
| QVQLVESCGGLVQAGGSLRLSCSSSGRIFRGNAMGWYRQAPGKERELVAAILTGVTTYYADSVKGRFTISRDNAKNTVYLQTNSLKPEDTAVYYCAAERPSRRSGYEYWGQGTQVTVSS | low polyreactivity |
| QVQLVESCGGLVQAGGSLRLSFAASGSILVRYAMGWYRQAPGKERELVAAITSGGSTYADSVKGRFTISRDNAKNTVYLQMNSLKPEDTAVYYCAADAYGYGGDSWGQGTLVTVSS | low polyreactivity |
| QVQLVESCGGLVQAGVSLRLSCAASVFKYAMGRYRQAPGKKRELVAAISSGGITSYADSVKGRFTISRDNAKNTVYLQMNSLKPEDTAVYYCNARLRHSQYAYYYWGQGTQVTLSS | high polyreactivity |
| QVQLVESCGGLVQEGGSLRLSCAASGFTFLRYAMGWYRQAPGKERELVAAISIPGGNTYYADSVKGRFTISRDNAKNTVYLQMNSLKPEDTAVYYCAARFGGGAARHGYWGQGTQVTVSS | high polyreactivity |
| QVQLVESEGGLVQAGGSLRLSFAASGSIFPYNAMGWYRQAPGKERELVAAISISGGSTYYADSVKGRFTISRDNAKNTVYLLMNSLKPEDTAVYYCAARQSLSSAFDYCGQGTQVTVSS | low polyreactivity |
